Where “and” joins values, the source holds several entries; their conditions need not be identical. Identical values can stand only once.

In general, Kd refers to the constant that tells how readily two partners part at equilibrium. Higher therefore signals weaker binding.

The test concerns the target F-actin (filamentous actin from rabbit muscle) (rabbit, UniProt P68135 1-377). Briefly: co-sedimentation.

B1: 90 kDa isoform of palladin (natural protein)
chain: MSALASRSAPAMQSSGSFNYARPKQFIAAQNLGPASGHGTPASSPSSSSLPSPMSPTPRQFGRAPVPPFAQPFGAEPEAPWGSSSPSPPPPPPPVFSPTAAFPVPDVFPLPPPPPPLPSPGQASHCSSPATRFGHSQTPAAFLSALLPSQPPPAAVNALGLPKGVTPAGFPKKASRTARIASDEEIQGTKDAVIQDLERKLRFKEDLLNNGQPRLTYEERMARRLLGADSATVFNIQEPEEETANQEYKVSSCEQRLISEIEYRLERSPVDESGDEVQYGDVPVENGMAPFFEMKLKHYKIFEGMPVTFTCRVAGNPKPKIYWFKDGKQISPKSDHYTIQRDLDGTCSLHTTASTLDDDGNYTIMAANPQGRISCTGRLMVQAVNQRGRSPRSPSGHPHVRRPRSRSRDSGDENEPIQERFFRPHFLQAPGDLTVQEGKLCRMDCKVSGLPTPDLSWQLDGKPVRPDSAHKMLVRENGVHSLIIEPVTSRDAGIYTCIATNRAGQNSFSLELVVAAKEAHKPPVFIEKLQNTGVADGYPVRLECRVLGVPPPQIFWKKENESLTHSTDRVSMHQDNHGYICLLIQGATKEDAGWYTVSAKNEAGIVSCTARLDVYTQWHQQSQSTKPKKVRPSASRYAALSDQGLDIKAAFQPEANPSHLTLNTALVESEDL
On to B1, for which the Kd was 2110 nM and 3100 nM.
